The labels stand for the following.
T1: GST-DVL1 PDZ domain fusion protein (human, UniProt O14640 247-339)
T1 construct: also called human dishevelled segment polarity protein homolog; not shown: glutathione S-transferase encoded by vector pGEX-3X (Pharmacia)
T1 sequence: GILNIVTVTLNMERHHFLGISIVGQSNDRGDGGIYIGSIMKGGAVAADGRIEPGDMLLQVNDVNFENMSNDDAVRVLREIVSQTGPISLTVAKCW

T2: GST-TAX-IP43 PDZ domain fusion protein (human, UniProt Q13884 109-180)
T2 construct: also called TAX43; not shown: glutathione S-transferase encoded by vector pGEX-3X (Pharmacia)
T2 sequence: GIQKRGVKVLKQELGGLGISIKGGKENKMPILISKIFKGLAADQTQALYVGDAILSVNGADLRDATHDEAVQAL

T3: GST-prIL16 fusion protein (PDZ domains 1-2) (Homo sapiens (Human), UniProt Q14005 1111-1324)
T3 construct: also called putative interleukin 16 precursor; not shown: glutathione S-transferase encoded by vector pGEX-3X (Pharmacia)
T3 sequence: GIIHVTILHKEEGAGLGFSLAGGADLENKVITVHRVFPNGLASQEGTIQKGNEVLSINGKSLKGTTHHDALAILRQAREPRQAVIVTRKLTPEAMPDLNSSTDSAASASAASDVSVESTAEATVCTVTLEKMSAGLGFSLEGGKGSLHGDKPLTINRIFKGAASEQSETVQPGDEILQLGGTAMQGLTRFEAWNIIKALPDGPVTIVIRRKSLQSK

T4: GST-DLG5 (p-dlg) PDZ domain fusion protein (Human, UniProt Q8TDM6 1343-1583)
T4 construct: also called Human discs large protein p-dlg; not shown: glutathione S-transferase encoded by vector pGEX-3X (Pharmacia)
T4 sequence: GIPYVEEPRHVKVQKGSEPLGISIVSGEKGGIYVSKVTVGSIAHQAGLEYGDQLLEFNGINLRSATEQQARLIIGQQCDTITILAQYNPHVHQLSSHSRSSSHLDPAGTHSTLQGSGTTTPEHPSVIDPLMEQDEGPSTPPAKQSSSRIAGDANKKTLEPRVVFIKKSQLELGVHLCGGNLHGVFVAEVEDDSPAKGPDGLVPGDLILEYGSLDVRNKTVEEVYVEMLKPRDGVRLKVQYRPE

T5: GEF PDZ-GST fusion protein (Homo sapiens (Human), UniProt Q8TEU7 293-400)
T5 construct: The label GEF is not explained in the excerpts
T5 sequence: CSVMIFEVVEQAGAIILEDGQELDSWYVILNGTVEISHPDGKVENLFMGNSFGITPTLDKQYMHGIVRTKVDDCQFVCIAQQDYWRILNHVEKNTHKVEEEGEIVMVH

T6: SP short PDZ-GST fusion protein (Homo sapiens (Human), UniProt O43464 350-435)
T6 construct: The label SP short is not explained in the excerpts
T6 sequence: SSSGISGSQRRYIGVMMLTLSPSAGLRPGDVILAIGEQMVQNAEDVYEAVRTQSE

T7: GST-TAX-IP2 PDZ domain fusion protein (human, UniProt O14908 129-216)
T7 construct: also called TAX-1P2; TAX2; not shown: glutathione S-transferase encoded by vector pGEX-3X (Pharmacia)
T7 chain: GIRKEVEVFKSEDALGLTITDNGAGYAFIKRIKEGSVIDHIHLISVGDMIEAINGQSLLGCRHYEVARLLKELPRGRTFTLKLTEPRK

T8: K858 PDZ-GST fusion protein (Homo sapiens (Human), UniProt Q8WWI1 1038-1131)
T8 construct: Order of GST and PDZ part and limits not seen in the excerpts
T8 sequence: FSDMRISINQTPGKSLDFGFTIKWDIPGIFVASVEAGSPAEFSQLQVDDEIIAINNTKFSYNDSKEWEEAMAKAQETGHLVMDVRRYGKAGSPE

T9: GST-KIAA0303 PDZ domain fusion protein (Homo sapiens (Human), UniProt O15021 1138-1228)
T9 construct: also called K303; not shown: glutathione S-transferase encoded by vector pGEX-3X (Pharmacia)
T9 sequence: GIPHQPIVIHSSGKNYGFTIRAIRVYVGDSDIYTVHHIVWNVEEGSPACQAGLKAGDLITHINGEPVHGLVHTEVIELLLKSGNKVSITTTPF

T10: TAX-IP2L PDZ-GST fusion protein (Homo sapiens (Human), UniProt Q8TF64 107-197)
T10 construct: Order of GST and PDZ part and limits not seen in the excerpts
T10 sequence: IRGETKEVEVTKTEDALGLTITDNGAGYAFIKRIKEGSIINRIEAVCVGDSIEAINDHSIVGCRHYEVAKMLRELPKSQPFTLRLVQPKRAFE

T11: ConEn PDZ-GST fusion protein (Homo sapiens (Human), UniProt Q969H4 193-287)
T11 construct: The label ConEn is not explained in the excerpts
T11 sequence: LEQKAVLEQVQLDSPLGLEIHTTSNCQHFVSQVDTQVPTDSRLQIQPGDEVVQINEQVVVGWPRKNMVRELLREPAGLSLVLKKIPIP

T12: GST-AF6 PDZ domain fusion protein (Homo sapiens (Human), UniProt P55196 1001-1093)
T12 construct: also called af-6 protein; not shown: glutathione S-transferase encoded by vector pGEX-3X (Pharmacia)
T12 sequence: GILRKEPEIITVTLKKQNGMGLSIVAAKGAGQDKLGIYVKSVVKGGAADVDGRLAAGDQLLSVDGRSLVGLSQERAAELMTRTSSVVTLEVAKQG

T13: TAX-IP33 PDZ-GST fusion protein (Homo sapiens (Human), UniProt O14910 103-193)
T13 construct: Order of GST and PDZ part and limits not seen in the excerpts
T13 sequence: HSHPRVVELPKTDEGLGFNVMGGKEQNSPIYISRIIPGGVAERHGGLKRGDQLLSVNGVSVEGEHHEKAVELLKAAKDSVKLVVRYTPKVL

This note sets out measurements from US20050037969A1 (ARBOR VITA, published 2005).

Ends that are not written are not given here. * marks the point of attachment. Biotin = O=C1N[C@H]2[C@H](CS[C@H]2CCCCC(=O)*)N1

T14 sequence (Q2T9M1 other isoform, or with tags, fused parts or gaps limits assumed): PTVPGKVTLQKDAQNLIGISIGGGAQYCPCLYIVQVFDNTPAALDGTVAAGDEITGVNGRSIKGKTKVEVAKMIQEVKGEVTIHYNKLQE
T15 sequence (Q13009 other isoform, or with tags, fused parts or gaps): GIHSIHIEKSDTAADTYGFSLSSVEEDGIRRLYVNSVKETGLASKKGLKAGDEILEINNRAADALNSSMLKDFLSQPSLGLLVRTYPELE

The first assay addresses T14, PICK1 PDZ-GST fusion protein (Bos taurus (Bovine), UniProt Q2T9M1 17-105).
T14 construct: Order of GST and PDZ part and limits not seen in the excerpts
Kind of assay: A/G assays.
For Biotin-HKAEIHAQPSDKERLTSDA (also called CD49F (Aform, alpha6)) [CD49F C-terminal peptide AA12L, biotinylated], the binding result is given as “no binding”.

As to Biotin-EVICYIEKPGVETLEDSVF [CDW125 (IL5R) C-terminal peptide AA28L, biotinylated], the binding result was “no binding”.

The target in a further assay is T1, GST-DVL1 PDZ domain fusion protein. The assay is described as follows: A/G assays.
As to Biotin-HKAEIHAQPSDKERLTSDA (also called CD49F (Aform, alpha6)) [CD49F C-terminal peptide AA12L, biotinylated], the binding result is recorded as “no binding”.

Biotin-EVICYIEKPGVETLEDSVF [CDW125 (IL5R) C-terminal peptide AA28L, biotinylated]: the binding result is on record as “no binding”.

Another assay deals with T2, GST-TAX-IP43 PDZ domain fusion protein. Kind of assay: A/G assays.
Turning to Biotin-HKAEIHAQPSDKERLTSDA (also called CD49F (Aform, alpha6)) [CD49F C-terminal peptide AA12L, biotinylated], the binding result is “no binding”.

With Biotin-EVICYIEKPGVETLEDSVF [CDW125 (IL5R) C-terminal peptide AA28L, biotinylated], the binding result was “no binding”.

The next assay concerns the target T3, GST-prIL16 fusion protein (PDZ domains …). The assay is described as follows: A/G assays.
Take Biotin-HKAEIHAQPSDKERLTSDA (also called CD49F (Aform, alpha6)) [CD49F C-terminal peptide AA12L, biotinylated]: the binding result is reported as “no binding”.

Consider Biotin-EVICYIEKPGVETLEDSVF [CDW125 (IL5R) C-terminal peptide AA28L, biotinylated], for which the binding result was “no binding”.

The next assay has as its target T4, GST-DLG5 (p-dlg) PDZ domain fusion …. The assay is described as follows: A/G assays.
As for Biotin-HKAEIHAQPSDKERLTSDA (also called CD49F (Aform, alpha6)) [CD49F C-terminal peptide AA12L, biotinylated], the binding result is recorded as “no binding”.

Consider Biotin-EVICYIEKPGVETLEDSVF [CDW125 (IL5R) C-terminal peptide AA28L, biotinylated], for which the binding result is given as “no binding”.

A further assay has as its target T5, GEF PDZ-GST fusion protein. Kind of assay: A/G assays.
Turning to Biotin-HKAEIHAQPSDKERLTSDA (also called CD49F (Aform, alpha6)) [CD49F C-terminal peptide AA12L, biotinylated], the binding result is recorded as “no binding”.

For Biotin-EVICYIEKPGVETLEDSVF [CDW125 (IL5R) C-terminal peptide AA28L, biotinylated], the binding result is reported as “no binding”.

Another assay addresses T6, SP short PDZ-GST fusion protein. Kind of assay: A/G assays.
In the case of Biotin-HKAEIHAQPSDKERLTSDA (also called CD49F (Aform, alpha6)) [CD49F C-terminal peptide AA12L, biotinylated], the binding result was “no binding”.

Consider Biotin-EVICYIEKPGVETLEDSVF [CDW125 (IL5R) C-terminal peptide AA28L, biotinylated], for which the binding result is given as “no binding”.

For the next assay, the target named is T7, GST-TAX-IP2 PDZ domain fusion protein. Kind of assay: A/G assays.
For Biotin-HKAEIHAQPSDKERLTSDA (also called CD49F (Aform, alpha6)) [CD49F C-terminal peptide AA12L, biotinylated], the binding result is given as “no binding”.

As to Biotin-EVICYIEKPGVETLEDSVF [CDW125 (IL5R) C-terminal peptide AA28L, biotinylated], the binding result is listed as “no binding”.

In a further assay the target is T8, K858 PDZ-GST fusion protein. The assay is described as follows: A/G assays.
As for Biotin-HKAEIHAQPSDKERLTSDA (also called CD49F (Aform, alpha6)) [CD49F C-terminal peptide AA12L, biotinylated], the binding result was “no binding”.

Take Biotin-EVICYIEKPGVETLEDSVF [CDW125 (IL5R) C-terminal peptide AA28L, biotinylated]: the binding result is “no binding”.

The next assay has as its target T15, GST-TIAM1 PDZ domain fusion protein (Homo sapiens (Human), UniProt Q13009 845-931).
T15 construct: also called TLAM1; T-lymphoma invasion and metastasis inducing protein 1; not shown: glutathione S-transferase encoded by vector pGEX-3X (Pharmacia)
The assay is described as follows: A/G assays.
Consider Biotin-HKAEIHAQPSDKERLTSDA (also called CD49F (Aform, alpha6)) [CD49F C-terminal peptide AA12L, biotinylated], for which the binding result is on record as “no binding”.

For Biotin-EVICYIEKPGVETLEDSVF [CDW125 (IL5R) C-terminal peptide AA28L, biotinylated], the binding result is “no binding”.

In the next assay the target is T9, GST-KIAA0303 PDZ domain fusion protein. Kind of assay: A/G assays.
Regarding Biotin-HKAEIHAQPSDKERLTSDA (also called CD49F (Aform, alpha6)) [CD49F C-terminal peptide AA12L, biotinylated], the binding result is listed as “no binding”.

For Biotin-EVICYIEKPGVETLEDSVF [CDW125 (IL5R) C-terminal peptide AA28L, biotinylated], the binding result is “no binding”.

In another assay the target is T16, K316 PDZ-GST fusion protein (Homo sapiens (Human), UniProt Q14CM0 72-159).
T16 construct: Order of GST and PDZ part and limits not seen in the excerpts
T16 sequence (Q14CM0 72-159 limits assumed): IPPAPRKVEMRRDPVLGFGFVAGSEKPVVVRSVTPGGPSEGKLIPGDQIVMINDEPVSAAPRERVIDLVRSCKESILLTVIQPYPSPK
The assay is described as follows: A/G assays.
Take Biotin-HKAEIHAQPSDKERLTSDA (also called CD49F (Aform, alpha6)) [CD49F C-terminal peptide AA12L, biotinylated]: the binding result is “no binding”.

For the molecule Biotin-EVICYIEKPGVETLEDSVF [CDW125 (IL5R) C-terminal peptide AA28L, biotinylated], the binding result is “no binding”.

The target of the next assay is T10, TAX-IP2L PDZ-GST fusion protein. Kind of assay: A/G assays.
Turning to Biotin-HKAEIHAQPSDKERLTSDA (also called CD49F (Aform, alpha6)) [CD49F C-terminal peptide AA12L, biotinylated], the binding result is “no binding”.

Take Biotin-EVICYIEKPGVETLEDSVF [CDW125 (IL5R) C-terminal peptide AA28L, biotinylated]: the binding result was “no binding”.

A further assay deals with T11, ConEn PDZ-GST fusion protein. The assay is described as follows: A/G assays.
With Biotin-HKAEIHAQPSDKERLTSDA (also called CD49F (Aform, alpha6)) [CD49F C-terminal peptide AA12L, biotinylated], the binding result is reported as “no binding”.

As to Biotin-EVICYIEKPGVETLEDSVF [CDW125 (IL5R) C-terminal peptide AA28L, biotinylated], the binding result is on record as “no binding”.

Another assay addresses T12, GST-AF6 PDZ domain fusion protein. The assay is described as follows: A/G assays.
Consider Biotin-HKAEIHAQPSDKERLTSDA (also called CD49F (Aform, alpha6)) [CD49F C-terminal peptide AA12L, biotinylated], for which the binding result is listed as “no binding”.

Biotin-EVICYIEKPGVETLEDSVF [CDW125 (IL5R) C-terminal peptide AA28L, biotinylated]: the binding result is listed as “no binding”.

The next assay has as its target T13, TAX-IP33 PDZ-GST fusion protein. Kind of assay: A/G assays.
Regarding Biotin-HKAEIHAQPSDKERLTSDA (also called CD49F (Aform, alpha6)) [CD49F C-terminal peptide AA12L, biotinylated], the binding result is recorded as “no binding”.

Take Biotin-EVICYIEKPGVETLEDSVF [CDW125 (IL5R) C-terminal peptide AA28L, biotinylated]: the binding result is “no binding”.
